Measured values from the supplement of paper PMC10567573.

B1: SOAT1 (parent)
chain: PSNGRIDIKQLIAKKIKLTAEAEE
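Note: lentivirally expressed fusions sorted by FACS into six bins by GFP to DsRed ratio, PSI derived from sequencing read proportions per bin multiplied by bin number.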

Variants of: B1
Assay: protein stability index of a GFP-peptide fusion (GPS, HEK-293T) (PSI 1-6); higher = more stable
Settings: c terminus: a fixed tail appended
L18P showed a protein stability index of 4.04.
For L18W, the protein stability index was 2.9.
In the case of L18T, the protein stability index is reported as 3.38.
L18S showed a protein stability index of 3.59.
For L18G, the protein stability index was 4.04.
L18F gave a protein stability index of 3.38.
In the case of L18N, the protein stability index is reported as 3.73.
With L18R the protein stability index was 3.45.
L18I gave a protein stability index of 3.72.
E21Y gave a protein stability index of 2.21.
In the case of E21A, the protein stability index is reported as 2.74.
In the case of E21S, the protein stability index is reported as 3.02.
Work on E21W yielded a protein stability index of 2.12.
Variant E21D has a protein stability index of 3.43.
Work on E21Q yielded a protein stability index of 3.05.
For E21C, the protein stability index was 2.78.
E21I showed a protein stability index of 3.19.
With E21L the protein stability index was 2.96.
E21P gave a protein stability index of 2.92.
For E21V, the protein stability index was 2.59.
In the case of E21M, the protein stability index is reported as 2.4.
In the case of E21N, the protein stability index is reported as 3.13.
With E21K the protein stability index was 2.51.
E21F gave a protein stability index of 1.97.
E21T gave a protein stability index of 3.15.
For E21H, the protein stability index was 3.13.
Work on E23F yielded a protein stability index of 1.75.
Variant E23A has a protein stability index of 2.66.
Work on E23C yielded a protein stability index of 2.33.
For E23D, the protein stability index was 3.3.
For E23P, the protein stability index was 2.88.
Variant E23L has a protein stability index of 2.12.
Variant E23W has a protein stability index of 2.31.
Variant E23I has a protein stability index of 2.69.
With E23H the protein stability index was 2.67.
For E23Y, the protein stability index was 2.22.
Work on E23K yielded a protein stability index of 3.15.
With A22Y the protein stability index was 2.91.
For A22H, the protein stability index was 3.42.
A22R gave a protein stability index of 2.79.
For A22G, the protein stability index was 3.66.
A22F showed a protein stability index of 2.35.
For A22T, the protein stability index was 2.82.
For A22D, the protein stability index was 4.05.
A22L showed a protein stability index of 3.2.
A22P showed a protein stability index of 3.18.
For A22K, the protein stability index was 3.15.
Work on A22S yielded a protein stability index of 3.26.
Variant A22C has a protein stability index of 2.63.
For A22Q, the protein stability index was 3.72.
A22E gave a protein stability index of 3.93.
Work on A22W yielded a protein stability index of 2.48.
Work on R5M yielded a protein stability index of 3.55.
With R5F the protein stability index was 3.49.
R5L gave a protein stability index of 4.05.
R5D showed a protein stability index of 4.47.
R5K gave a protein stability index of 3.68.
For R5H, the protein stability index was 4.
Work on R5Y yielded a protein stability index of 3.81.
With R5T the protein stability index was 4.
Work on R5I yielded a protein stability index of 3.93.
Variant R5P has a protein stability index of 4.16.
R5E showed a protein stability index of 4.42.
With R5V the protein stability index was 3.82.
With R5N the protein stability index was 3.94.
In the case of K9I, the protein stability index is reported as 2.29.
K9T gave a protein stability index of 3.23.
K9V gave a protein stability index of 2.9.
Variant K9D has a protein stability index of 3.87.
K9A showed a protein stability index of 3.04.
In the case of K9H, the protein stability index is reported as 3.07.
Variant K9R has a protein stability index of 2.74.
With K9L the protein stability index was 2.77.
K9C showed a protein stability index of 3.25.
With K9N the protein stability index was 3.66.
For K9S, the protein stability index was 3.28.
In the case of K9P, the protein stability index is reported as 3.69.
Work on K14Q yielded a protein stability index of 3.22.
With K14A the protein stability index was 2.88.
With K14M the protein stability index was 2.96.
K14D showed a protein stability index of 3.96.
Variant K14P has a protein stability index of 4.38.
Work on K14F yielded a protein stability index of 2.63.
K14E gave a protein stability index of 4.04.
Work on K14T yielded a protein stability index of 3.34.
Work on K14S yielded a protein stability index of 3.84.
For K14G, the protein stability index was 3.63.
Work on K14R yielded a protein stability index of 3.22.
K14C showed a protein stability index of 3.37.
K14H showed a protein stability index of 3.46.
K14I showed a protein stability index of 2.71.
With K14N the protein stability index was 3.59.
For K14L, the protein stability index was 2.24.
In the case of K15Q, the protein stability index is reported as 3.87.
K15H showed a protein stability index of 3.17.
Work on K15V yielded a protein stability index of 2.42.
For K15S, the protein stability index was 3.59.
K15T gave a protein stability index of 3.13.
With K15E the protein stability index was 4.52.
K15R showed a protein stability index of 2.88.
Work on K15A yielded a protein stability index of 3.19.
Work on K15M yielded a protein stability index of 3.11.
Work on K15G yielded a protein stability index of 4.05.
K15N gave a protein stability index of 4.05.
Work on K15C yielded a protein stability index of 2.5.
In the case of K15P, the protein stability index is reported as 4.22.
K15W gave a protein stability index of 2.63.
Variant K15D has a protein stability index of 4.25.
Variant K17R has a protein stability index of 2.99.
K17Y showed a protein stability index of 2.84.
Work on K17N yielded a protein stability index of 3.61.
For K17Q, the protein stability index was 3.5.
Work on K17A yielded a protein stability index of 3.67.
In the case of K17M, the protein stability index is reported as 3.1.
K17E showed a protein stability index of 3.62.
With K17C the protein stability index was 3.05.
With K17S the protein stability index was 3.59.
Work on K17G yielded a protein stability index of 3.55.
K17D gave a protein stability index of 4.01.
For K17H, the protein stability index was 3.02.
Work on K17L yielded a protein stability index of 3.12.
K17T gave a protein stability index of 3.5.
Work on N3Q yielded a protein stability index of 4.09.
With N3V the protein stability index was 3.58.
N3W gave a protein stability index of 3.45.
In the case of N3E, the protein stability index is reported as 4.27.
For N3F, the protein stability index was 3.55.
For N3H, the protein stability index was 4.32.
Variant N3C has a protein stability index of 3.86.
With N3I the protein stability index was 3.87.
For N3M, the protein stability index was 3.66.
For N3S, the protein stability index was 4.13.
For N3Y, the protein stability index was 3.42.
Variant N3L has a protein stability index of 3.46.
With N3P the protein stability index was 4.11.
For N3T, the protein stability index was 4.2.
Variant N3G has a protein stability index of 3.88.
Work on N3D yielded a protein stability index of 4.38.
Work on N3K yielded a protein stability index of 3.96.
Work on N3A yielded a protein stability index of 4.25.
In the case of I12P, the protein stability index is reported as 3.7.
With I12E the protein stability index was 4.35.
I12C showed a protein stability index of 3.83.
Work on I12W yielded a protein stability index of 2.78.
I12L showed a protein stability index of 3.17.
Variant I12D has a protein stability index of 4.28.
For I12Y, the protein stability index was 3.19.
Work on I12Q yielded a protein stability index of 4.17.
With I12R the protein stability index was 3.85.
Work on I12M yielded a protein stability index of 3.7.
Work on I12K yielded a protein stability index of 3.83.
In the case of I12N, the protein stability index is reported as 3.99.
For I12T, the protein stability index was 3.89.
P1C gave a protein stability index of 2.86.
P1V showed a protein stability index of 2.98.
For P1M, the protein stability index was 3.1.
P1Y gave a protein stability index of 3.62.
P1T gave a protein stability index of 3.64.
For P1A, the protein stability index was 3.1.
In the case of P1L, the protein stability index is reported as 3.06.
Work on P1R yielded a protein stability index of 3.35.
P1F gave a protein stability index of 3.22.
Work on P1G yielded a protein stability index of 3.33.
Work on P1N yielded a protein stability index of 3.14.
For P1Q, the protein stability index was 3.23.
P1S gave a protein stability index of 3.46.
P1E gave a protein stability index of 2.65.
